Experimental findings from patent publication US20070207967A1, “Peptide Inhibitors of Matrix Metalloproteinase Activity” (CTT CANCER TARGETING TECHNOLOGIES OY, priority 2004, published 2007) are described below.

One assay has as its target αM integrin I domain (Homo sapiens, UniProt P11215). The assay can be described thus: Pro-MMP-9 binding to αM integrin I domain. How it is done:
Pro-MMP-9 and gelatin binding to leukocyte αM integrin. Pro-MMP-9 binding to the αM I domain in the presence of peptides was studied as described (12). Gelatin binding to the pro-MMP-^9/αMβ2 integrin complex was studied by immobilizing the integrin αMβ2 (12) or αIIbβ3 as a control (Enzyme Research Laboratories, South Bend, Ind.) (1 μg/well) in TBS/1 mM CaCl2/1 mM MgCl2 followed by saturation of the wells with 1% BSA in PB ST. Pro-MMP-9 (100 ng/well) was incubated for 2 h and the unbound pro-MMP-9 was washed away. Biotinylated gelatin (2.5 μg/ml) was allowed to bind for 30 min at room temperature. Bound gelatin was detected with streptavidin-peroxidase.

A further assay deals with pro-MMP-9 (Homo sapiens, UniProt P14780). The experiment in a line: Activation of purified pro-MMP-9 by MMP-3 in vitro. Format: biochemical. To be noted: 200 μM, 1 h, 37° C.
Sequence of pro-MMP-9 (P14780 20-707 limits assumed): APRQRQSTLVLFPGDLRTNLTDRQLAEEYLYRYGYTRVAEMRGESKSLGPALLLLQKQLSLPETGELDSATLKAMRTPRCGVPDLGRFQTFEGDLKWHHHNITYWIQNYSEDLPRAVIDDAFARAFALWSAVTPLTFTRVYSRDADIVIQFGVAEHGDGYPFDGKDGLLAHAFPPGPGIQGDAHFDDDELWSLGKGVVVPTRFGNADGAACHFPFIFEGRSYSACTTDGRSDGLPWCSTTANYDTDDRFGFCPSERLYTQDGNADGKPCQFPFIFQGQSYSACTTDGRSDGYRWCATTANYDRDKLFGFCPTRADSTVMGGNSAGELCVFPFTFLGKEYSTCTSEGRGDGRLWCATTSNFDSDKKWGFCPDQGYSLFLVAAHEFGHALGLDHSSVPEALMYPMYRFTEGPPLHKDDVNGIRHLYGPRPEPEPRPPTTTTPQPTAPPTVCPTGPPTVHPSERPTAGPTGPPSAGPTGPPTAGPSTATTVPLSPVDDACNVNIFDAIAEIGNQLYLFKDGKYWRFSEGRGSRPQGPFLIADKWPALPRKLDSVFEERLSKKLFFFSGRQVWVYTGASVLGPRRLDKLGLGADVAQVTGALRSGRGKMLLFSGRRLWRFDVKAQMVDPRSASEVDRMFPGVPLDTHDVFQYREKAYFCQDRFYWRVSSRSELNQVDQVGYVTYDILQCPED
The target in assay [1] is T1, MMP-9 C domain (Homo sapiens, UniProt P14780).
T1 construct: MMP-9 (Asp^494-Asp^688) were expressed as described (16); made in house; host or cells: E. coli (β5 fragment)
T1 sequence (P14780 513-707 limits assumed): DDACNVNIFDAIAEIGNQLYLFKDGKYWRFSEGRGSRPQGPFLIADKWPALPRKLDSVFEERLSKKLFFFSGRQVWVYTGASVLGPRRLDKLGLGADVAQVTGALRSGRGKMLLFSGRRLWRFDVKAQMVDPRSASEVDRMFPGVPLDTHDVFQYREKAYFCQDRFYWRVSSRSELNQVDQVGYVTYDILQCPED
The experiment in a line: Dimerization of the MMP-9 C domain. Format: binding. As to conditions: 125I-labelled C domain on unlabelled C domain. How it is done:
Dimerization of the MMP-9 C domain. Recombinant C domain or CBD at a 5 μg/ml concentration in PBS were coated on microtiter wells followed by blocking with 1% BSA-PBST. ^125I-labelled C domain was preincubated with the peptides for 30 minutes in 1% BSA-PBST and then added to the wells. After a 2 hour incubation, the wells were washed. Bound radioactivity was eluted with 1% SDS and measured with a gamma-counter.

A further assay addresses trypsin-activated MMP-9 (Homo sapiens, UniProt P14780). The experiment in a line: Gelatinase inhibition assay (gelatin degradation), MMP-9. Format: biochemical. To be noted: biotinylated gelatin substrate. How it is done:
(§1) Gelatinase inhibition assay. Inhibition of aminophenylmercuric acetate (APMA)-activated MMP-2 and trypsin-activated MMP-9 was performed using biotinylated gelatin as a substrate (15).

Assay [2] addresses T2, aminophenylmercuric acetate (APMA)-activated MMP-2 (Homo sapiens, UniProt P08253).
T2 sequence (P08253 110-660): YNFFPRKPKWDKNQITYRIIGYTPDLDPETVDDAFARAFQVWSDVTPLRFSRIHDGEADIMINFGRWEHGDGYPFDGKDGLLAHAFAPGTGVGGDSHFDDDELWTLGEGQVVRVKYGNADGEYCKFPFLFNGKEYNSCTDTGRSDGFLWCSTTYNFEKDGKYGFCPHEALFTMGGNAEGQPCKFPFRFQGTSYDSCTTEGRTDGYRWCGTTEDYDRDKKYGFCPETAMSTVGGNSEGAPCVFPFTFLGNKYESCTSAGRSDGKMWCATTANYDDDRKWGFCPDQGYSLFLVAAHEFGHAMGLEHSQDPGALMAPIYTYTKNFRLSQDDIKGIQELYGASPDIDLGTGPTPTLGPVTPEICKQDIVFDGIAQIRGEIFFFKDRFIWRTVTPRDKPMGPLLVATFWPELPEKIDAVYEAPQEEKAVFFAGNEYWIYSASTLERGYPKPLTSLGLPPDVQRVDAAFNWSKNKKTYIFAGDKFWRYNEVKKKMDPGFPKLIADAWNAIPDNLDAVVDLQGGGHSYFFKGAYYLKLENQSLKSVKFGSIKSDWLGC
The assay can be described thus: Gelatinase inhibition assay (gelatin degradation), MMP-2. The class given is biochemical. As to conditions: biotinylated gelatin substrate. The method, then:
as §1

The test system of the next assay is HT1080 fibrosarcoma. The assay can be described thus: HT1080 invasion through matrigel. Format: cell-based, human. To be noted: 200 μM concentration. The method, then: Cell migration and invasion. The cell migration assay was conducted using transwell migration chambers (8 μm pore size, Costar) in 10% serum-containing medium (2,14). Briefly, the membranes were coated on both sides with 40 μg/ml GST or with the β2 integrin ligand peptide […]-GST fusion (GST-LLG-C4) and blocked with complete medium. THP-1 cells (50 000/100 μl) were preincubated with the peptides for 1 h in serum-containing medium. The cells were allowed to migrate for 16 h and were then stained with crystal violet and counted (14). The HT1080 (20 000 cells/I100 μl) invasion assay was performed as the THP-1 migration, except that matrigel coated transwells (BD Biosciences) were used.

The subject of assay [3] is HT1080 cells. The assay can be described thus: Pericellular proteolysis (gelatinolysis) of HT1080 cells. The class given is cell-based, human. To be noted: HT1080, 48 h, PDBu, fibronectin/FITC-labelled gelatin coating. How it is done: Pericellular proteolysis. Microtiter wells were coated with a mixture of fibronectin (10 μg/ml) and FITC-labelled gelatin (100 μg/ml) followed by saturation with 1% BSA in PBS. HT1080 cells (50 000 in 100 μl 0.1% BSA/DMEM) were incubated in the presence of 20 nM PDBu (4β-phorbol-12,13-dibutyrate, SigmaAldrich) and the peptides or the MMP-2/MMP-9 selective inhibitor InhI (Calbiochem). As a control non-activated cells and medium without the cells were used. Gelatinolysis after 48 hours was measured as the increase of fluorescence from a 50 μl aliquot of the conditioned medium using Wallac Victor^2 reader.

In assay [4] the target is T1, MMP-9 C domain. The assay can be described thus: β5 I-EGF2+3 binding assay, MMP-9 C domain. The method, then: B5 I-EGF2+3 binding assay. MMP-9 C domain, MMP-2 C domain, CBD, β5 I-EGF2+3 or vitronectin (2 μg/ml) were immobilized in microtiter wells. Biotinylated β5 I-EGF2+3 fragment (2.5 μg/ml) was added to the wells which were preincubated with the competitors for 30 min in 1% BSA-PBST and then incubated further for one hour. Bound biotinylated protein was detected with streptavidin-peroxidase.

The subject of assay [5] is HT1080 cells. The assay can be described thus: HT1080 cell adhesion to vitronectin or fibronectin. As to conditions: proteins 40 μg/ml, CRV peptide 200 μM. Format: cell-based, human. The method, then: Cell adhesion. HT1080 cells were allowed to adhere on vitronectin or fibronectin (2 μg/ml) in the presence or absence of peptides (200 μM), proteins (40 μg/ml) or a monoclonal anti-αvβ5 integrin antibody P1F6 (Chemicon) or a control antibody (25 μg/ml). The adhesion was quantified as described (14). Adhesion of THP-1 cells to immobilized KIM127 or control monoclonal antibodies (2 μg/ml) was done in the presence or absence of soluble proteins (50 μg/ml) or antibodies (25 μg/ml).

Sequence of αM integrin I domain (P11215 150-328 limits assumed): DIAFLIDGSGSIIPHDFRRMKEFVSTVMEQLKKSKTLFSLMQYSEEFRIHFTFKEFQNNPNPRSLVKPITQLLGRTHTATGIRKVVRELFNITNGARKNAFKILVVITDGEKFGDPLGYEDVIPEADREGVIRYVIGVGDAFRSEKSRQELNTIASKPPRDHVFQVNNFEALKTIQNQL
Sequence of trypsin-activated MMP-9 (P14780 107-707 limits assumed): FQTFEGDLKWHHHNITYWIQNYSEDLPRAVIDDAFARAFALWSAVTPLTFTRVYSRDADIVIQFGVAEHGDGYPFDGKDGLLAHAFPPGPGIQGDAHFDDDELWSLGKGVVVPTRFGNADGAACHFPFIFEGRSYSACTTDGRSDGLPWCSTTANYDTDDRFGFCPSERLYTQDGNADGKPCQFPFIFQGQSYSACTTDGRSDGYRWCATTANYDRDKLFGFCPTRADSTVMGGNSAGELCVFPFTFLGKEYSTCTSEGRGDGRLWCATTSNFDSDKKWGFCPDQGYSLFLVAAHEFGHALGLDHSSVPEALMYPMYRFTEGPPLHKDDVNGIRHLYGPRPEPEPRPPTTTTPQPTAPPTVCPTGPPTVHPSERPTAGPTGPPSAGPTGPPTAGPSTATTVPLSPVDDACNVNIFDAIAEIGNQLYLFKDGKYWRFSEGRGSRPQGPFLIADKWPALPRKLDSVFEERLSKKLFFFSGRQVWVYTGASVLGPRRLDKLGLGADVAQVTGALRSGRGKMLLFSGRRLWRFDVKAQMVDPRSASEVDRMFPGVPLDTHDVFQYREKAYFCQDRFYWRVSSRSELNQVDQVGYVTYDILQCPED

Turning to CRVYGPYLLC, the “Effect on interaction of MMP-9 with the leukocyte αM integrin I domain” value with αM integrin I domain is reported as “do not affect”. Moreover, the “Inhibition of activation of purified pro-MMP-9 by MMP-3” value with pro-MMP-9 is “did not inhibit”. Further, the “Inhibition of dimerization of the C domain” value with MMP-9 C domain [1] is on record as “inhibited”. In addition, the “Inhibition of MMP-9 activity in gelatin degradation assay” value with trypsin-activated MMP-9 is “did not inhibit”. In addition, the “Inhibition of MMP-2 activity in gelatin degradation assay” value in [2] is “did not inhibit”. The “Inhibition of HT1080 invasion into matrigel” value in the assay with HT1080 fibrosarcoma was 50%. The “Inhibition of pericellular gelatinolysis” value with HT1080 cells [3] is listed as “inhibited”. In addition, the “Competition of biotinylated β5 I-EGF2+3 binding to the MMP-9 C domain” value in the assay with MMP-9 C domain [4] is given as “inhibitable”. Moreover, in the assay with HT1080 cells [5], the “Inhibition of HT1080 cell adhesion to vitronectin or fibronectin” value is on record as “Neither”.
